Results published in PMC12695944, “Geminin inhibits DNA replication licensing by sterically blocking CDT1-MCM2 interactions” (Nature Communications, 2025).
Changes are numbered by the printed parent chain.

Key:
[1] = molecular target: T1, CDT1^ΔN (N-terminally truncated CDT1^158-546) (human, UniProt Q9H211 158-546); assay: SPR; single-cycle; CDT1^ΔN covalently immobilised on a CM5 chip (EDC/NHS); Gem^FL dimer injected, 7 injections, three-fold steps up to 750 nM; 25 °C; 10 mM HEPES, 500 mM NaCl, 50 µM EDTA, 1 mM TCEP-HCl, 0.05% Tween-20, pH 8.0; 1:1 kinetic model of analyte dimer:CDT1; conditions: both partners purified
T1 construct: CDT1, human, UniProt Q9H211, residues 158-546 (lacks the unstructured N-terminus); Plasmid is in Supplementary Data 1; The His tag serves for capture on the NTA chip in the SPR with peptides; also called standard CDT1 construct; source: E. coli BL21 (DE3), purified (HisTrap Excel, POROS HS, Superdex 200); not shown: His6, N-terminal, kept
T1 sequence (looked up): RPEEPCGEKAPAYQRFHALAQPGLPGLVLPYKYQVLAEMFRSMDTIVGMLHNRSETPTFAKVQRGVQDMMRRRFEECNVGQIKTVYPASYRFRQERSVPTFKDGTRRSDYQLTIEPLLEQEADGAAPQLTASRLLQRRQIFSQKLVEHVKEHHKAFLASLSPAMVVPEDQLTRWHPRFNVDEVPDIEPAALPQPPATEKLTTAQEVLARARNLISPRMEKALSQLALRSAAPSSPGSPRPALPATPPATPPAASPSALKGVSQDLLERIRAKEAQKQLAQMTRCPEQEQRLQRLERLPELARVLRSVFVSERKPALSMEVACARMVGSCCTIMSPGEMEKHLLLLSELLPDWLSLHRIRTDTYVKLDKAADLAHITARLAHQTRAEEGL

[2] = molecular target: T2, CDT1^ΔN (N-terminally truncated CDT1^158-546) (human, UniProt Q9H211 158-546); assay: SPR
T2 chain: T1 sequence (looked up)

[3] = molecular target: T3, full-length CDT1 (CDT1^FL), untagged, co-expressed with geminin (CG complex) (human, UniProt Q9H211 1-546); assay: SEC-MALS; co-expressed and co-purified CDT1^FL-geminin (CG) complex at >25× higher concentration than in the pre-RC assay; conditions: both partners purified
T3 construct: CDT1, human, UniProt Q9H211, residues 1-546; A separate GST-cleaved CDT1^FL was used only in pre-RC assays; also called CDT1 of the CG complex; source: E. coli BL21 (DE3), co-expressed with His-geminin, co-purified as described for geminin
T3 sequence (looked up): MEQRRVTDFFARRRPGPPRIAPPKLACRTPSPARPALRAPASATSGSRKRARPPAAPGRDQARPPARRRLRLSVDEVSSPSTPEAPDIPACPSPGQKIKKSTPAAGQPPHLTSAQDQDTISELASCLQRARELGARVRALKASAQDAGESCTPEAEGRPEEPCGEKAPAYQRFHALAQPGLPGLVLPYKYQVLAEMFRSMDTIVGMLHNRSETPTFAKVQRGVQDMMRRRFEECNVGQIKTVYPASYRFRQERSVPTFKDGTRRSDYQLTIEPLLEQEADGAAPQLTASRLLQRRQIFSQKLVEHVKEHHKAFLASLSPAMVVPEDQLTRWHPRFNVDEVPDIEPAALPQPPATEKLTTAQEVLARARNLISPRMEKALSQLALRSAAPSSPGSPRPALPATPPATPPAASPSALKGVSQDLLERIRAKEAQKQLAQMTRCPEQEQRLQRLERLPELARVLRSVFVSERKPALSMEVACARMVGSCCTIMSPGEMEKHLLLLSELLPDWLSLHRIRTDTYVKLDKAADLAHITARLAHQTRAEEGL

[4] = molecular target: T4, CDT1^4A (CDT1^ΔN with residues 327–330 mutated to alanines) (human, UniProt Q9H211 158-546, residues 327–330 mutated to alanines (CDT1^4A)); assay: mass photometry; room temperature; proteins incubated at CDT1:geminin monomer ratios 0:1, 1:0, 1:2, 1:3, 2:4, 1:4 (1 part = 150 nM) in pre-RC buffer minus Triton X-100, diluted 1:10 in PBS on the instrument; MHD, CHD at 1:2; conditions: both partners purified
T4 construct: CDT1, human, UniProt Q9H211, residues 158-546 with residues 327-330 all alanine; R330 is; source: E. coli, purified as for the MHD and CHD
T4 sequence (looked up): T1 sequence (looked up) with Q170A, L171A, T172A, R173A

[5] = molecular target: T5, CDT1^R330A (on a CDT1^ΔN background) (human, UniProt Q9H211 158-546, R330A); assay: as above; conditions: both partners purified
T5 construct: CDT1, human, UniProt Q9H211, residues 158-546 with R330A; source: E. coli, purified as for the MHD and CHD
T5 sequence (looked up): T1 sequence (looked up) with R173A

[6] = molecular target: T6, CDT1 middle helical domain (CDT1^MHD, residues 158–396) (human, UniProt Q9H211 158-396); assay: as above; conditions: both partners purified
T6 construct: CDT1, human, UniProt Q9H211, residues 158-396; also called CDT1^158-396; source: E. coli, purified as CDT1^ΔN with the POROS HS step omitted
T6 sequence (looked up): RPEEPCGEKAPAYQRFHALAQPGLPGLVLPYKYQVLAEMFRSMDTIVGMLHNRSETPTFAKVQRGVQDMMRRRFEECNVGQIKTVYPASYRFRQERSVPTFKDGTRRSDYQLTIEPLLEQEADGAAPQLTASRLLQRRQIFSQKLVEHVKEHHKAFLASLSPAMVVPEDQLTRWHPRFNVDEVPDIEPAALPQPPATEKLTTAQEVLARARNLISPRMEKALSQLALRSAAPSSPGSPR

[7] = molecular target: T1, CDT1^ΔN (N-terminally truncated …); assay: as above; conditions: both partners purified
[8] = molecular target: the molecule itself; assay: as above

B1: full-length geminin (Gem^FL) (natural protein, human, UniProt O75496 1-209, looked up)
chain: MNPSMKQKQEEIKENIKNSSVPRRTLKMIQPSASGSLVGRENELSAGLSKRKHRNDHLTSTTSSPGVIVPESSENKNLGGVTQESFDLMIKENPSSQYWKEVAEKRRKALYEALKENEKLHKEIEQKDNEIARLKKENKELAEVAEHVQYMAELIERLNGEPLDNFESLDNQEFDSEEETVEDSLVEDSEIGTCAEGTVSSSTDAKPCI
notes: geminin, human, UniProt O75496, full length; Dimer in solution; In the co-purification of the CG complex the His tag is still on geminin at the HisTrap step and is cleaved afterwards; Plasmid is in Supplementary Data 1; also called WT geminin; source: E. coli BL21 (DE3), purified (HisTrap Excel, POROS HQ, Superdex 200); also co-expressed with untagged CDT1 in E. coli BL21 (DE3) and purified in …
Kd [1]: 0.012 µM
koff [2]: 0.0019 s⁻¹
stoichiometry N [3]: 2 geminin monomers per CDT1
stoichiometry N [4]: 2 geminin monomers per CDT1
stoichiometry N [5]: 2 geminin monomers per CDT1
stoichiometry N [6]: 2 geminin monomers per CDT1^MHD
stoichiometry N [7]: 2 geminin monomers per CDT1
stoichiometry N [8]: 1.91 ± 0.09
